The record followed here is article PMC6687543 (Structure (London, England : 1993), 2019).

The assay deals with T1, preformed binary complex IL-18/IL-18Rα-ECD ( | human, UniProt Q14116 37-193; Q13478 22-329).
T1 sequence (looked up) 1: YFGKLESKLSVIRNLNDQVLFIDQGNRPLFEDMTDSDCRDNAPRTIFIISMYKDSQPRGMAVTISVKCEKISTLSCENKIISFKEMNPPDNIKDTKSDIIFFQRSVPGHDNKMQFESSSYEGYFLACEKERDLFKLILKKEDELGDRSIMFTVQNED
T1 sequence (looked up) 2: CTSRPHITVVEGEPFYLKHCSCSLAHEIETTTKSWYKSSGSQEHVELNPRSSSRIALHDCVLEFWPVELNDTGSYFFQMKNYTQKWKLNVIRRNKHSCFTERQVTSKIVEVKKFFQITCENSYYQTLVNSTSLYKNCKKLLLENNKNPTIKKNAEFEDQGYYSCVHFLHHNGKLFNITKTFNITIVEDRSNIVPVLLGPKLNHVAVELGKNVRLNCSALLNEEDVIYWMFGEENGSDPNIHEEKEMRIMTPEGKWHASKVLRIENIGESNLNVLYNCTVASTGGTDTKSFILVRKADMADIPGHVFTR
Nature of the assay: SPR. In general terms: In SPR one partner is held on a chip, and binding of the other changes the refractive index at the surface.

B1: IL-18Rβ-ECD (extracellular domain of IL-18 receptor beta), wild type (receptor, human, UniProt O95256 20-354, looked up)
chain: FNISGCSTKKLLWTYSTRSEEEFVLFCDLPEPQKSHFCHRNRLSPKQVPEHLPFMGSNDLSDVQWYQQPSNGDPLEDIRKSYPHIIQDKCTLHFLTPGVNNSGSYICRPKMIKSPYDVACCVKMILEVKPQTNASCEYSASHKQDLLLGSTGSISCPSLSCQSDAQSPAVTWYKNGKLLSVERSNRIVVDEVYDYHQGTYVCDYTQSDTVSSWTVRAVVQVRTIVGDTKLKPDILDPVEDTLEVELGKPLTISCKARFGFERVFNPVIKWYIKDSDLEWEVSVPEAKSIKSTLKDEIIERNIILEKVTQRDLRRKFVCFVQNSIGNTTQSVQLKE
modifications: biotin (biotinylated IL-18Rβ-ECD, site not stated)
On to B1, for which the binding result is listed as “binds”.
